B1: UvrB (Bacillus caldotenax) (natural protein)
chain: MVEGRFQLVAPYEPQGDQPQAIAKLVDGLRRGVKHQTLLGATGTGKTFTISNVIAQVNKPTLVIAHNKTLAGQLYSELKEFFPHNAVEYFVSYYDYYQPEAYVPQTDTYIEKDAKINDEIDKLRHSATSALFERRDVIIVASVSCIYGLGSPEEYRELVVSLRVGMEIERNALLRRLVDIQYDRNDIDFRGTFRVRGDVVEIFPASRDEHCIRVEFFGDEIERIREVDALTGKVLGEREHVAIFPASHFVTREEKMRLAIQNIEQELEERLAELRAQGKLLEAQRLEQRTRYDLEMMREMGFCSGIENYSRHLALRPPGSTPYTLLDYFPDDFLIIVDESHVTLPQLRGMYNGDRARKQVLVDHGFRLPSALDNRPLTFEEFEQKINQIIYVSATPGPYELEHSPGVVEQIIRPTGLLDPTIDVRPTKGQIDDLIGEIRERVERNERTLVTTLTKKMAEDLTDYLKEAGIKVAYLHSEIKTLERIEIIRDLRLGKYDVLVGINLLREGLDIPEVSLVAILDADKEGFLRSERSLIQTIGRAARNANGHVIMYADTITKSMEIAIQETKRRRAIQEEYNRKHGIVPRTVKKEIRDVIRATYAAEETEMYEAKPAAAMTKQEREELIRTLEAEMKEAAKALDFERAAQLRDIIFELKAEG

Assays:
[1] = molecular target: UvrAB complex formed beforehand on DNA tightropes (Bacillus caldotenax) (UniProt P56981); assay: single-molecule fluorescence colocalisation on DNA tightropes (three colours); UvrA, UvrB and UvrC (1:1:0.5 nM) labelled with different Qdots (565, 605, 655 nm), incubated together, then added to undamaged λ-DNA tightropes; room temperature; ABC buffer (50 mM Tris-HCl pH 7.5, 50 mM KCl, 1 mM ATP, 10 mM MgCl2, 10 mM DTT)
[2] = molecular target: UvrAB complex formed beforehand on DNA tightropes (Bacillus caldotenax) (UniProt P56981); assay: single-molecule fluorescence colocalisation on DNA tightropes (two colours); UvrAB complexes first formed on undamaged DNA tightropes with the Qdot on UvrB (unlabelled, non-biotinylated UvrA) or on UvrA; streptavidin-Qdot-labelled biotin-UvrC of another colour then added; dual-coloured complexes counted; room temperature; ABC buffer
[3] = molecular target: UvrA (Bacillus caldotenax) (Bacillus caldotenax); assay: single-molecule fluorescence colocalisation on DNA tightropes (three colours); UvrA, UvrB and UvrC (1:1:0.5 nM) labelled with different Qdots (565, 605, 655 nm), incubated together, then added to undamaged λ-DNA tightropes; room temperature; ABC buffer (50 mM Tris-HCl pH 7.5, 50 mM KCl, 1 mM ATP, 10 mM MgCl2, 10 mM DTT)
[4] = molecular target: UvrC (Bacillus caldotenax) (Bacillus caldotenax); assay: as above

Row | Molecule | occurrence of the triple-coloured complex among DNA-bound Qdots [1] [%] | occurrence of the dual-colour complex among DNA-bound Qdots [2] [%] | occurrence of the complex among DNA-bound Qdots [3] [%] | occurrence of the complex among DNA-bound Qdots [4] [%]
1 | UvrC (Bacillus caldotenax) (natural protein) | 1.6 | 16.6 |  | 
2 | B1 |  |  | 6.7 | 1.6

— PMC5814901
